According to patent publication US11267868 (dated 2022):

T1: FcgRIIb (human, UniProt P31994)
T1 chain: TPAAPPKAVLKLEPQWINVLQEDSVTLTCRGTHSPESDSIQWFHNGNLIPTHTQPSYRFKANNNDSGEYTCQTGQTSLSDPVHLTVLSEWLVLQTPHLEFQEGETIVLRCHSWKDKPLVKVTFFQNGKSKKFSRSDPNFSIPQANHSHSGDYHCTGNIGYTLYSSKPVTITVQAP

T2: FcgRIa (human, UniProt P12314)
T2 chain: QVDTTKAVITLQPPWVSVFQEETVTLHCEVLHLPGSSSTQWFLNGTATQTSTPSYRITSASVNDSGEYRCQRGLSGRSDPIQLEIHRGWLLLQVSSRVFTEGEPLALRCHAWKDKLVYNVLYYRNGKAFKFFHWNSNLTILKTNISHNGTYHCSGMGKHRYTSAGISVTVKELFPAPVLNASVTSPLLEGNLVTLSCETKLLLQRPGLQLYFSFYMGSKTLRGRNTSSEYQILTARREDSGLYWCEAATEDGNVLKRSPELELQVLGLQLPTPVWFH

T3: FcgRIIaH (human, UniProt P12318)
T3 chain: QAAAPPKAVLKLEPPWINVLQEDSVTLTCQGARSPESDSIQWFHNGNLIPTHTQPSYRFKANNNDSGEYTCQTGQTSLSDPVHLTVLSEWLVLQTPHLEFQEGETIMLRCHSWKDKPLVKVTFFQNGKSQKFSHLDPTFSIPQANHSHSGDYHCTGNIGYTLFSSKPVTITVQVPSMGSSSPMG

T4: FcgRIIaR (human, UniProt P12318)
T4 chain: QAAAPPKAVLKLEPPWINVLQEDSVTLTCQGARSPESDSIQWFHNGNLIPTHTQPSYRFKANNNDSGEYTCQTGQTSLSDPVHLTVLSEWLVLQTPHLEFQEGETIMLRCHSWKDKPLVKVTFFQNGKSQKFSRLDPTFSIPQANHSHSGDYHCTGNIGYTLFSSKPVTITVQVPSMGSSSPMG


Key:
Assay in all cases: SPR
FcgRIIb = target: T1, FcgRIIb
FcgRIa = target: T2, FcgRIa
FcgRIIaH = target: T3, FcgRIIaH
FcgRIIIaV = FcgRIIIaV (human, UniProt P08637)
Chain of FcgRIIIaV (P08637 17-208 F176V): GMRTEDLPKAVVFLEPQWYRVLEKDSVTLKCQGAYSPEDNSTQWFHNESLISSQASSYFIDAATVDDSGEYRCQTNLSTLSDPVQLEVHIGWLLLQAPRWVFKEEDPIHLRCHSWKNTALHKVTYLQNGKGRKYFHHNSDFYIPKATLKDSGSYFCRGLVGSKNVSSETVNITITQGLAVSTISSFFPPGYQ

FcgRIIaR = target: T4, FcgRIIaR

Kd (FcgRIIb) [µM]	Kd (FcgRIa) [µM]	Kd (FcgRIIaH) [µM]	Kd (FcgRIIIaV) [µM]	Kd (FcgRIIaR) [µM]	Binder
5.1	0.007	130	42	81	IL6R-P687/IL6R-L (antibody) chain 1: QVQLQESGPGLVKPSETLSLTCAVSGHSISHDHAWSWVRQPPGEGLEWIGFISYSGITNYNPSLQGRVTISRDNSKNTLYLQMNSLRAEDTAVYYCARSLARTTAMDYWGEGTLVTVSSASTKGPSVFPLAPSSKSTSGGTAALGCLVKDYFPEPVTVSWNSGALTSGVHTFPAVLQSSGLYSLSSVVTVPSSSLGTQTYICNVNHKPSNTKVDKKVEPKSCDKTHTCPPCPAPELLGGDSVFLFPPKPKDTLMISRTPEVTCVVVDVSHEDPEVKFNWYVDGVEVHNAKTKPREEQYNATYRVVSVLTVLHQDWLNGKEYKCKVNNKALPHPIEKTISKAKGQPREPQVYTLPPSRDELTKNQVSLTCLVKGFYPSDIAVEWESNGQPENNYKTTPPVLDSDGSFFLYSKLTVDKSRWQQGNVFSCSVMHEALHNHYTQKSLSLSP chain 2: not shown
4.1	0.19	61	36	66	IL6R-P726/IL6R-L (antibody) chain 1: QVQLQESGPGLVKPSETLSLTCAVSGHSISHDHAWSWVRQPPGEGLEWIGFISYSGITNYNPSLQGRVTISRDNSKNTLYLQMNSLRAEDTAVYYCARSLARTTAMDYWGEGTLVTVSSASTKGPSVFPLAPSSKSTSGGTAALGCLVKDYFPEPVTVSWNSGALTSGVHTFPAVLQSSGLYSLSSVVTVPSSSLGTQTYICNVNHKPSNTKVDKKVEPKSCDKTHTCPPCPAPELLGQDSVMLFPPKPKDTLMISRTPEVTCVVVDVSHEDPEVKFNWYVDGVEVHNAKTKPREEQENSTYRVVSVLTVLHQDWLNGKEYKCKVHNKALPHPIEKTISKAKGQPREPQVYTLPPSRDELTKNQVSLTCLVKGFYPSDIAVEWESNGQPENNYKTTPPVLDSDGSFFLYSKLTVDKSRWQQGNVFSCSVMHEALHNHYTQKSLSLSP chain 2: not shown
1.4	0.83	96	71	33	IL6R-P658/IL6R-L (antibody) chain 1: QVQLQESGPGLVKPSETLSLTCAVSGHSISHDHAWSWVRQPPGEGLEWIGFISYSGITNYNPSLQGRVTISRDNSKNTLYLQMNSLRAEDTAVYYCARSLARTTAMDYWGEGTLVTVSSASTKGPSVFPLAPSSKSTSGGTAALGCLVKDYFPEPVTVSWNSGALTSGVHTFPAVLQSSGLYSLSSVVTVPSSSLGTQTYICNVNHKPSNTKVDKKVEPKSCDKTHTCPPCPAPELFGGDSVMLFPPKPKDTLMISRTPEVTCVVVDVSHEDPEVKFNWYVDGVEVHNAKTKPREEQENSTYRVVSVLTVLHQDWLNGKEYKCKVSNKALPAPIEKTISKAKGQPREPQVYTLPPSRDELTKNQVSLTCLVKGFYPSDIAVEWESNGQPENNYKTTPPVLDSDGSFFLYSKLTVDKSRWQQGNVFSCSVMHEALHNHYTQKSLSLSP chain 2: not shown
3.9	0.58	81	50	74	IL6R-P728/IL6R-L (antibody) chain 1: QVQLQESGPGLVKPSETLSLTCAVSGHSISHDHAWSWVRQPPGEGLEWIGFISYSGITNYNPSLQGRVTISRDNSKNTLYLQMNSLRAEDTAVYYCARSLARTTAMDYWGEGTLVTVSSASTKGPSVFPLAPSSKSTSGGTAALGCLVKDYFPEPVTVSWNSGALTSGVHTFPAVLQSSGLYSLSSVVTVPSSSLGTQTYICNVNHKPSNTKVDKKVEPKSCDKTHTCPPCPAPELFGQDSVMLFPPKPKDTLMISRTPEVTCVVVDVSHEDPEVKFNWYVDGVEVHNAKTKPREEQENSTYRVVSVLTVLHQDWLNGKEYKCKVHNKALPAPIEKTISKAKGQPREPQVYTLPPSRDELTKNQVSLTCLVKGFYPSDIAVEWESNGQPENNYKTTPPVLDSDGSFFLYSKLTVDKSRWQQGNVFSCSVMHEALHNHYTQKSLSLSP chain 2: not shown
10	0.068	150	53	110	IL6R-P731/IL6R-L (antibody) chain 1: QVQLQESGPGLVKPSETLSLTCAVSGHSISHDHAWSWVRQPPGEGLEWIGFISYSGITNYNPSLQGRVTISRDNSKNTLYLQMNSLRAEDTAVYYCARSLARTTAMDYWGEGTLVTVSSASTKGPSVFPLAPSSKSTSGGTAALGCLVKDYFPEPVTVSWNSGALTSGVHTFPAVLQSSGLYSLSSVVTVPSSSLGTQTYICNVNHKPSNTKVDKKVEPKSCDKTHTCPPCPAPELLGQDSVMLFPPKPKDTLMISRTPEVTCVVVDVSPEDPEVKFNWYVDGVEVHNAKTKPREEQENSTYRVVSVLTVLHQDWLNGKEYKCKVHNKALPAPIEKTISKAKGQPREPQVYTLPPSRDELTKNQVSLTCLVKGFYPSDIAVEWESNGQPENNYKTTPPVLDSDGSFFLYSKLTVDKSRWQQGNVFSCSVMHEALHNHYTQKSLSLSP chain 2: not shown

The remaining lines, values behind:

Binder	Kd (FcgRIIb) [µM]	Kd (FcgRIa) [µM]	Kd (FcgRIIaH) [µM]	Kd (FcgRIIIaV) [µM]	Kd (FcgRIIaR) [µM]
IL6R-P657/IL6R-L (antibody) chain 1: QVQLQESGPGLVKPSETLSLTCAVSGHSISHDHAWSWVRQPPGEGLEWIGFISYSGITNYNPSLQGRVTISRDNSKNTLYLQMNSLRAEDTAVYYCARSLARTTAMDYWGEGTLVTVSSASTKGPSVFPLAPSSKSTSGGTAALGCLVKDYFPEPVTVSWNSGALTSGVHTFPAVLQSSGLYSLSSVVTVPSSSLGTQTYICNVNHKPSNTKVDKKVEPKSCDKTHTCPPCPAPELLGGDSVMLFPPKPKDTLMISRTPEVTCVVVDVSHEDPEVKFNWYVDGVEVHNAKTKPREEQENSTYRVVSVLTVLHQDWLNGKEYKCKVSNKALPYPIEKTISKAKGQPREPQVYTLPPSRDELTKNQVSLTCLVKGFYPSDIAVEWESNGQPENNYKTTPPVLDSDGSFFLYSKLTVDKSRWQQGNVFSCSVMHEALHNHYTQKSLSLSP chain 2: not shown	3.1	0.017	110	65	47
IL6R-P655/IL6R-L (antibody) chain 1: QVQLQESGPGLVKPSETLSLTCAVSGHSISHDHAWSWVRQPPGEGLEWIGFISYSGITNYNPSLQGRVTISRDNSKNTLYLQMNSLRAEDTAVYYCARSLARTTAMDYWGEGTLVTVSSASTKGPSVFPLAPSSKSTSGGTAALGCLVKDYFPEPVTVSWNSGALTSGVHTFPAVLQSSGLYSLSSVVTVPSSSLGTQTYICNVNHKPSNTKVDKKVEPKSCDKTHTCPPCPAPELLGGDSVMLFPPKPKDTLMISRTPEVTCVVVDVSHEDPEVKFNWYVDGVEVHNAKTKPREEQENSTYRVVSVLTVLHQDWLNGKEYKCKVHNKALPAPIEKTISKAKGQPREPQVYTLPPSRDELTKNQVSLTCLVKGFYPSDIAVEWESNGQPENNYKTTPPVLDSDGSFFLYSKLTVDKSRWQQGNVFSCSVMHEALHNHYTQKSLSLSP chain 2: not shown	2.7	0.018	58	46	42
IL6R-P605/IL6R-L (antibody) chain 1: QVQLQESGPGLVKPSETLSLTCAVSGHSISHDHAWSWVRQPPGEGLEWIGFISYSGITNYNPSLQGRVTISRDNSKNTLYLQMNSLRAEDTAVYYCARSLARTTAMDYWGEGTLVTVSSASTKGPSVFPLAPSSKSTSGGTAALGCLVKDYFPEPVTVSWNSGALTSGVHTFPAVLQSSGLYSLSSVVTVPSSSLGTQTYICNVNHKPSNTKVDKKVEPKSCDKTHTCPPCPAPELLGGDSVFLFPPKPKDTLMISRTPEVTCVVVDVSHEDPEVKFNWYVDGVEVHNAKTKPREEQDNATYRVVSVLTVLHQDWLNGKEYKCKVSNKALPAPIEKTISKAKGQPREPQVYTLPPSRDELTKNQVSLTCLVKGFYPSDIAVEWESNGQPENNYKTTPPVLDSDGSFFLYSKLTVDKSRWQQGNVFSCSVMHEALHNHYTQKSLSLSP chain 2: not shown	5.3	0.0086	130	44	60
IL6R-P603/IL6R-L (antibody) chain 1: QVQLQESGPGLVKPSETLSLTCAVSGHSISHDHAWSWVRQPPGEGLEWIGFISYSGITNYNPSLQGRVTISRDNSKNTLYLQMNSLRAEDTAVYYCARSLARTTAMDYWGEGTLVTVSSASTKGPSVFPLAPSSKSTSGGTAALGCLVKDYFPEPVTVSWNSGALTSGVHTFPAVLQSSGLYSLSSVVTVPSSSLGTQTYICNVNHKPSNTKVDKKVEPKSCDKTHTCPPCPAPELLGGDSVMLFPPKPKDTLMISRTPEVTCVVVDVSHEDPEVKFNWYVDGVEVHNAKTKPREEQENSTYRVVSVLTVLHQDWLNGKEYKCKISNKALPAPIEKTISKAKGQPREPQVYTLPPSRDELTKNQVSLTCLVKGFYPSDIAVEWESNGQPENNYKTTPPVLDSDGSFFLYSKLTVDKSRWQQGNVFSCSVMHEALHNHYTQKSLSLSP chain 2: not shown	2.7	0.022	110	83	47
